The values that follow come from article PMC3216659 (Molecular Biology of the Cell, 2011).

First the molecules themselves.
B1: MBP–Duo1 complex (complex, S. cerevisiae)
chain 1: MSEDKAKLGTTRSATEYRLSIGSAPTSRRSSMGESSSLMKFADQEGLTSSVGEYNENTIQQLLLPKIRELSDSIITLDSNFTRLNFIHESLADLNESLGSLLYGIMSNSWCVEFSQAPHDIQDDLIAIKQLKSLEDEKNNLVMELSNMERGIKRKKDEQGENDLAKASQNKQFNQPLFPSSQVRKYRSYDNRDKRKPSKIGNNLQVENEEDYEDDTSSEASFVLNPTNIGMSKSSQGHVTKTTRLNNNTNSKLRRKSILHTIRNSIASGADLPIENDNVVNLGDLHPNNRISLGSGAARVVNGPVTKNRNSMFSGRAERKPTESRHSVAKKTEKKINTRPPFR
chain 2: MSEQSQLDDSTIDKLIPQIFNEMRSNLNNTTNKFPKSTGGGASDNISANSNSIRSFNSITTQSLLKESESLDKITAMIKNVTAALKNNLPVYVNQVHEVCKSTNSILDSWINIHSQAGYIHKLMSDQTYLKLINDRLHNENVNTNDEDGSTLHNVIALKKKEILDLRQKLENRKGEKDAAPAKPPNQGLNPRYGVQSGRRPVPSAGISNNGRVRKTHVPASKRPSGIPRVTNRWTKPTASSSRKMFR
chain 3: MDSASKEETLEKLDQEITVNLQKIDSNLSFCFHKITQDIIPHVATYSEICERIMDSTEWLGTMFQETGLVNLQANAAAPVGNAPVKSLVSNNVGIFPTSAEEASRQSQTDNGPNEADSAVHVNRDVHSMFNNDSIDDFHTANITSTGQILKLPDSSDEDTGSEAVPSREQTDLTGEGHGGADDEQDESTIQRQSRKRKISLLLQQQYGSSSSMVPSPIVPNKMRKQLAHEEHINNDGDNDDENSNNIESSPLKQGHHHPKGQADDNNEGPDEEESTKEVPKPGTIIHFSTNR
chain 4: MGESLDRCIDDINRAVDSMSTLYFKPPGIFHNAILQGASNKASIRKDITRLIKDCNHDEAYLLFKVNPEKQSVSRRDGKEGVFDYVIKRDTDMKRNRRLGRPGEKPIIHVPKEVYLNKDRLDLNNKRRRTATTSGGGLNGFIFDTDLIGSSVISNSSSGTFKALSAVFKDDPQIQRLLYALENGSVLMEEESNNQRRKTIFVEDFPTDLILKVMAEVTDLWPLTEFKQDYDQLYHNYEQLSSKLRFIKKEVLLQDDRLKTMSQYHPSSSHDVAKIIRKEKDEIRRLEMEIANLQE
chain 5: MTDALEQSVLALEGTVSVLKDSVESLKCANEPSTNLASTMLQTKRVFRLVPEYDVERSKLDLIEEVEPLVRTLGDKLRKSMGRMQRELDTLQQTYELNDLRLKKNISMDDDDALNSPDMGQEYEGRDADDVVMMASSTNEELEELKKLKEKKKQLENKLEILKQK
chain 6: MMASTSNDEEKLISTTDKYFIEQRNIVLQEINETMNSILNGLNGLNISLESSIAVGREFQSVSDLWKTLYDGLESLSDEAPIDEQPTLSQSKTK
chain 7: MDSIDEQIAIKRKELQSLQKITSLTDGLKIQLTELNEQIKEMGMNADSVAQLMNNWDSIINNISQASLGLLQYAEGDYEIGPWKDSKKKESEQSNETGLEAQENDKNDEDNDEDEDLVPLPETMVRIRVDGNE
chain 8: MEHNLSPLQQEVLDKYKQLSLDLKALDETIKELNYSQHRQQHSQQETVSPDEILQEMRDIEVKIGLVGTLLKGSVYSLILQRKQEQESLGSNSK
chain 9: MENPHEQVQANILSRIIGNVKRLNESVAILNQELVTINNRNKNLEIMGAICDNYHSSVQFNLEATNNKKPPL
chain 10: MNANKQRQYNQLAHELRELQTNLQETTKQLDIMSKQCNENLVGQLGKVHGSWLIGSYIYYMEQMLGKTQ
B2: MBP–Spc19 complex (complex, S. cerevisiae)
chain 1: MSEDKAKLGTTRSATEYRLSIGSAPTSRRSSMGESSSLMKFADQEGLTSSVGEYNENTIQQLLLPKIRELSDSIITLDSNFTRLNFIHESLADLNESLGSLLYGIMSNSWCVEFSQAPHDIQDDLIAIKQLKSLEDEKNNLVMELSNMERGIKRKKDEQGENDLAKASQNKQFNQPLFPSSQVRKYRSYDNRDKRKPSKIGNNLQVENEEDYEDDTSSEASFVLNPTNIGMSKSSQGHVTKTTRLNNNTNSKLRRKSILHTIRNSIASGADLPIENDNVVNLGDLHPNNRISLGSGAARVVNGPVTKNRNSMFSGRAERKPTESRHSVAKKTEKKINTRPPFR
chain 2: MSEQSQLDDSTIDKLIPQIFNEMRSNLNNTTNKFPKSTGGGASDNISANSNSIRSFNSITTQSLLKESESLDKITAMIKNVTAALKNNLPVYVNQVHEVCKSTNSILDSWINIHSQAGYIHKLMSDQTYLKLINDRLHNENVNTNDEDGSTLHNVIALKKKEILDLRQKLENRKGEKDAAPAKPPNQGLNPRYGVQSGRRPVPSAGISNNGRVRKTHVPASKRPSGIPRVTNRWTKPTASSSRKMFR
chain 3: MDSASKEETLEKLDQEITVNLQKIDSNLSFCFHKITQDIIPHVATYSEICERIMDSTEWLGTMFQETGLVNLQANAAAPVGNAPVKSLVSNNVGIFPTSAEEASRQSQTDNGPNEADSAVHVNRDVHSMFNNDSIDDFHTANITSTGQILKLPDSSDEDTGSEAVPSREQTDLTGEGHGGADDEQDESTIQRQSRKRKISLLLQQQYGSSSSMVPSPIVPNKMRKQLAHEEHINNDGDNDDENSNNIESSPLKQGHHHPKGQADDNNEGPDEEESTKEVPKPGTIIHFSTNR
chain 4: MGESLDRCIDDINRAVDSMSTLYFKPPGIFHNAILQGASNKASIRKDITRLIKDCNHDEAYLLFKVNPEKQSVSRRDGKEGVFDYVIKRDTDMKRNRRLGRPGEKPIIHVPKEVYLNKDRLDLNNKRRRTATTSGGGLNGFIFDTDLIGSSVISNSSSGTFKALSAVFKDDPQIQRLLYALENGSVLMEEESNNQRRKTIFVEDFPTDLILKVMAEVTDLWPLTEFKQDYDQLYHNYEQLSSKLRFIKKEVLLQDDRLKTMSQYHPSSSHDVAKIIRKEKDEIRRLEMEIANLQE
chain 5: MTDALEQSVLALEGTVSVLKDSVESLKCANEPSTNLASTMLQTKRVFRLVPEYDVERSKLDLIEEVEPLVRTLGDKLRKSMGRMQRELDTLQQTYELNDLRLKKNISMDDDDALNSPDMGQEYEGRDADDVVMMASSTNEELEELKKLKEKKKQLENKLEILKQK
chain 6: MMASTSNDEEKLISTTDKYFIEQRNIVLQEINETMNSILNGLNGLNISLESSIAVGREFQSVSDLWKTLYDGLESLSDEAPIDEQPTLSQSKTK
chain 7: MDSIDEQIAIKRKELQSLQKITSLTDGLKIQLTELNEQIKEMGMNADSVAQLMNNWDSIINNISQASLGLLQYAEGDYEIGPWKDSKKKESEQSNETGLEAQENDKNDEDNDEDEDLVPLPETMVRIRVDGNE
chain 8: MEHNLSPLQQEVLDKYKQLSLDLKALDETIKELNYSQHRQQHSQQETVSPDEILQEMRDIEVKIGLVGTLLKGSVYSLILQRKQEQESLGSNSK
chain 9: MENPHEQVQANILSRIIGNVKRLNESVAILNQELVTINNRNKNLEIMGAICDNYHSSVQFNLEATNNKKPPL
chain 10: MNANKQRQYNQLAHELRELQTNLQETTKQLDIMSKQCNENLVGQLGKVHGSWLIGSYIYYMEQMLGKTQ
B3: MBP–Spc34 complex (complex, S. cerevisiae)
chain 1: MSEDKAKLGTTRSATEYRLSIGSAPTSRRSSMGESSSLMKFADQEGLTSSVGEYNENTIQQLLLPKIRELSDSIITLDSNFTRLNFIHESLADLNESLGSLLYGIMSNSWCVEFSQAPHDIQDDLIAIKQLKSLEDEKNNLVMELSNMERGIKRKKDEQGENDLAKASQNKQFNQPLFPSSQVRKYRSYDNRDKRKPSKIGNNLQVENEEDYEDDTSSEASFVLNPTNIGMSKSSQGHVTKTTRLNNNTNSKLRRKSILHTIRNSIASGADLPIENDNVVNLGDLHPNNRISLGSGAARVVNGPVTKNRNSMFSGRAERKPTESRHSVAKKTEKKINTRPPFR
chain 2: MSEQSQLDDSTIDKLIPQIFNEMRSNLNNTTNKFPKSTGGGASDNISANSNSIRSFNSITTQSLLKESESLDKITAMIKNVTAALKNNLPVYVNQVHEVCKSTNSILDSWINIHSQAGYIHKLMSDQTYLKLINDRLHNENVNTNDEDGSTLHNVIALKKKEILDLRQKLENRKGEKDAAPAKPPNQGLNPRYGVQSGRRPVPSAGISNNGRVRKTHVPASKRPSGIPRVTNRWTKPTASSSRKMFR
chain 3: MDSASKEETLEKLDQEITVNLQKIDSNLSFCFHKITQDIIPHVATYSEICERIMDSTEWLGTMFQETGLVNLQANAAAPVGNAPVKSLVSNNVGIFPTSAEEASRQSQTDNGPNEADSAVHVNRDVHSMFNNDSIDDFHTANITSTGQILKLPDSSDEDTGSEAVPSREQTDLTGEGHGGADDEQDESTIQRQSRKRKISLLLQQQYGSSSSMVPSPIVPNKMRKQLAHEEHINNDGDNDDENSNNIESSPLKQGHHHPKGQADDNNEGPDEEESTKEVPKPGTIIHFSTNR
chain 4: MGESLDRCIDDINRAVDSMSTLYFKPPGIFHNAILQGASNKASIRKDITRLIKDCNHDEAYLLFKVNPEKQSVSRRDGKEGVFDYVIKRDTDMKRNRRLGRPGEKPIIHVPKEVYLNKDRLDLNNKRRRTATTSGGGLNGFIFDTDLIGSSVISNSSSGTFKALSAVFKDDPQIQRLLYALENGSVLMEEESNNQRRKTIFVEDFPTDLILKVMAEVTDLWPLTEFKQDYDQLYHNYEQLSSKLRFIKKEVLLQDDRLKTMSQYHPSSSHDVAKIIRKEKDEIRRLEMEIANLQE
chain 5: MTDALEQSVLALEGTVSVLKDSVESLKCANEPSTNLASTMLQTKRVFRLVPEYDVERSKLDLIEEVEPLVRTLGDKLRKSMGRMQRELDTLQQTYELNDLRLKKNISMDDDDALNSPDMGQEYEGRDADDVVMMASSTNEELEELKKLKEKKKQLENKLEILKQK
chain 6: MMASTSNDEEKLISTTDKYFIEQRNIVLQEINETMNSILNGLNGLNISLESSIAVGREFQSVSDLWKTLYDGLESLSDEAPIDEQPTLSQSKTK
chain 7: MDSIDEQIAIKRKELQSLQKITSLTDGLKIQLTELNEQIKEMGMNADSVAQLMNNWDSIINNISQASLGLLQYAEGDYEIGPWKDSKKKESEQSNETGLEAQENDKNDEDNDEDEDLVPLPETMVRIRVDGNE
chain 8: MEHNLSPLQQEVLDKYKQLSLDLKALDETIKELNYSQHRQQHSQQETVSPDEILQEMRDIEVKIGLVGTLLKGSVYSLILQRKQEQESLGSNSK
chain 9: MENPHEQVQANILSRIIGNVKRLNESVAILNQELVTINNRNKNLEIMGAICDNYHSSVQFNLEATNNKKPPL
chain 10: MNANKQRQYNQLAHELRELQTNLQETTKQLDIMSKQCNENLVGQLGKVHGSWLIGSYIYYMEQMLGKTQ

This data set deals with the molecule itself. The experiment in a line: negative-stain EM with 2D class averages.
On to B1, for which the “stoichiometry N” value is 2.
B2: the “stoichiometry N” value came to 2.
Then B3, with 2.
